Results published in patent US20200040048A1 (published 2020).
Bridge positions count the residues as written; N and C are the ends. Square brackets hold non-standard residues; d marks the D form. dPhe(4-CF3) = N[C@H](Cc1ccc(C(F)(F)F)cc1)C(=O)O; R8 = C=CCCCCCC[C@@](C)(N)C(=O)O; R5 = C=CCCC[C@@](C)(N)C(=O)O; hLeu = CC(C)CC[C@H](N)C(=O)O; S5 = C=CCCC[C@](C)(N)C(=O)O; Cou6 = not defined here; Cou8 = not defined here; βAla = NCCC(=O)O

T1: zebrafish MDMX protein (residues 15-129, L46V/V95L) (zebrafish, UniProt Q7ZUW7 15-129)
T1 construct: Purified on Ni-NT agarose, so it probably carries a His tag from pET15b
T1 sequence (looked up): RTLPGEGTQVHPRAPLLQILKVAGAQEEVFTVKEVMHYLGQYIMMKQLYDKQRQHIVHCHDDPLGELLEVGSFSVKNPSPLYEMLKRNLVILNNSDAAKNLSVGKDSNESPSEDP

T2: MDMX (40 kD), O15151
T2 chain: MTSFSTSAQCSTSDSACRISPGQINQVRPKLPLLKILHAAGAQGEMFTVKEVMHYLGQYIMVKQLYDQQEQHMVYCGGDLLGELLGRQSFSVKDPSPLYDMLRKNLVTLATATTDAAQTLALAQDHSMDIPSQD


How the values were obtained:
[1] = target: T1, zebrafish MDMX protein (residues …); experiment: X-ray co-crystallography, complex refined to 2.3 Å
Description: The solution was allowed to sit overnight at 4° C. before setting up crystallization experiments. […] Cells were allowed to grow an additional 18 hr at 23° C. The protein was purified using Ni-NT Agarose followed by Superdex 75 buffered with 50 mM NaPO₄, pH 8.0, 150 mM NaCl, and 2 mM TCEP, and concentrating to 24 mg/ml. The buffer was exchanged to 20 mM Tris, pH 8.0, 50 mM NaCl, and 2 mM DTT for crystallization experiments. Initial crystals were obtained with the Nextal AMS screen #94, and the final optimized reservoir was 2.6 M AMS, 75 mM Hepes, pH 7.5. Crystals grew routinely as thin plates at 4° C. and were cryo-protected by pulling the crystals through a solution containing concentrated (3.4 M) malonate followed by flash cooling, storage, and shipment in liquid nitrogen.
For data collection, crystals were rotated through 180° in 1° increments using 0.8 second exposure times. […] Molecular replacement with program Molrep (CCP4) was performed with the MDMX component of the structure, and two molecules were identified in the asymmetric unit.

MDM2 = target: T3, MDM2 (UniProt Q00987 1-138, limits assumed); experiment: competitive FP vs FAM-labeled linear peptide, MDM2 41 kD; grade, scale in paragraph 603
T3 construct: also called MDM2 (41 kD); HDM2
Description: Then, diluted solution was further diluted from 100 μM to 10 μM with water (dilution 1:10), and diluted again with FP buffer from 10 μM to 40 nM (dilution 1:250). […] The diluted FAM-labeled peptides were kept in the dark until use.

MDMX (40 kD), O15151 = target: T2, MDMX (40 kD), O15151; experiment: competitive FP on MDMX, FAM-labeled linear peptide displaced; Ki grade, + = >1000 nM; conditions: remark: other sources report otherwise

T3 sequence (Q00987 1-138 limits assumed): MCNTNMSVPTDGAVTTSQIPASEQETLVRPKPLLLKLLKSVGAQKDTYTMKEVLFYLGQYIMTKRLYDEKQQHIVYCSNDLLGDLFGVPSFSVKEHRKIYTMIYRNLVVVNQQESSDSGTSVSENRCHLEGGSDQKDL

Row | Ki (MDMX (40 kD), O15151) [nM] | Binder | other results
1 | – | QSQQTFANLWRLLAQN (not fully specified; N-terminal acetyl; C-terminal amide; %r8 at position 7 and % at position 14 are crosslinked alpha-methyl non-natural amino acids forming the i, i+7 aliphatic staple (the token '%' alone is not defined in the filing)) [Ac-QSQQTF%r8NLWRLL%QN-NH2] | binding result [1]: binds
2 | – | Ac-[dT][dA][dW][dY][dA][dN][dPhe(4-CF3)][dE][R5][dL][dL][dR][R5][dA]-NH2 (staple 9-13, also called Ac-tawyanf4CF3e$r5llr$r5a-NH2) [peptidomimetic macrocycle SP 755] | IC50 (MDM2): ≤ 10 nM
3 | > 1000 | Cou6-[βAla]LTF[R8]EYWAQ[hLeu][S5]SAA-NH2 (staple 5-12; reading uncertain) [SP446 Cou6BaLTF$r8EYWAQhL$SAA-NH2] | –
4 | > 1000 | Cou8-[βAla]LTF[R8]EYWAQ[hLeu][S5]SAA-NH2 (staple 5-12; reading uncertain) [SP447 Cou8BaLTF$r8EYWAQhL$SAA-NH2] | –
